Reference: US20200009238A1 (UNIVERSITETET I OSLO, published 2020)
Positions count from the first letter of the chain named. Names and notes keep the numbering of the source.

Experiments:
[1] = biological target: MART-1 peptide on HLA-A2, on HLA-A2 positive SupT1 cells expressing Iiwt MART-1; test: flow cytometry; HLA-A2 positive SupT1 cells expressing Iiwt MART-1, 10 nM sTcR, anti-His-PE
[2] = biological target: HLA-A2 single-chain trimer (SCT) combined with MART-1 peptide; test: flow cytometry; SupT1 cells expressing SCT-MART-1, 10 nM sTcR 15 min at RT, anti-His-PE
[3] = biological target: MART-1 peptide on HLA-A2, on HLA-A2 positive SupT1 cells expressing Ii L17A/RRP MART-1; test: flow cytometry; HLA-A2 positive SupT1 cells expressing Ii L17A/RRP MART-1, 10 nM sTcR, anti-His-PE
[4] = biological target: the molecule itself; test: self-association (trimer); western blot of boiled and non-boiled whole cell lysates of transfected Hek cells, anti Ii M-B741
Method: Hek cells were transfected as indicated. After 24 hours, whole cell lysates (WCL) were subjected to 4-20% SDS-PAGE Tris-HEPES-SDS gels, transferred to PVDF membranes and probed with anti Ii antibody, M-B741. The samples were either boiled or non-boiled before gel loading. Ii trimers and monomers are shown. Detection of actin in the WCL was used as loading control using anti-actin antibodies.
In order to function as a chaperone for MHC II antigen presentation, Ii depends on two important features; the ability to trimerize[17] and to traffic to the endosomal pathway. The trimerization of IiRRP/L17A was analyzed by western blotting (WB).

## soluble form of DMF5 (MART-1 specific TcR)
[1]
  MFI: 105 MFI
  percent of cells stained: 2%
[2]
  MFI: 37000 MFI
  percent of cells stained: 100%
[3]
  MFI: 194 MFI
  percent of cells stained: 21%

B1: human invariant chain Iip33 wild type (other)
chain: MDDQRDLISNNEQLPMLGRRPGAPESKCSRGALYTGFSILVTLLLAGQATTAYFLYQQQGRLDKLTVTSQNLQLENLRMKLPKPPKPVSKMRMATPLLMQALPMGALPQGPMQNATKYGNMTEDHVMHLLQNADPLKVYPPLKGSFPENLRHLKNTMETIDWKVFESWMHHWLLFEMSRHSLEQKPTDAPPKESLELEDPSSGLGVTKQDLGPVPM
notes: Full length protein expressed in transfected Hek cells and analysed in whole cell lysates; also called Iiwt; Ii wt
[4]
  binding result: binds

B2: invariant chain trafficking mutant Ii RRP/L17A (other)
chain: B1 chain with Q4R, D6P, L17A
notes: Expressed in Hek cells and analysed in lysates; also called IiL17A/RRP; Ii L17A RRP
[4]
  binding result: binds

B3: invariant chain double leucine mutant Ii L7A/L17A (other)
chain: B1 chain with L7A, L17A
notes: Expressed in Hek cells and analysed in lysates
[4]
  binding result: binds
